Test results from IntAct's records for PubMed 22232549.

B1: Extra-large guanine nucleotide-binding protein 2 (Arabidopsis thaliana (Mouse-ear cress)), C6KIE6 (parent)
chain: MAAVIRKLLPFPSPNPKRDNRESDDDDETSSGYRIEYSFASEYKGPLIANVPRALPVEVDQIPTALPVSFSSLRSGISYPVAPLVMTKDTKRPPDSGIEKKNGFVDSAAGSSVVLIGRDVVSGSSSSSSSKRLDVPEEVKSPADFRLSPSSPLSASAREEDHLDDDRVSDVGPRAVRFVEPFQSSECDESSYVSDGESIAATHRAERKGKRGSCYRCQLGNRFTEKEVCIVCDAKYCFNCVRRAMGAMPEGRKCQACIGYRIDESKRASLGKCSRMLKRHLTDSELRQVMNAEITCKANQLPSRLIIVNDKPLSEDELYTLQTCPNPPKKLKPGHYWYDKVAGYWGKIGEKPSQIISPNNSIGGYISEKVSNGDTEIYINGREITKPELTMLKWAGVQCEGKPHFWVDSDGSYREEGQKHPIGNIWSKKRAKIACAVFSLPVPPASSAVEPYDVPLYEQKMLNKLLLIGSEKGGATTIYKQARSLYNVSFSLEDRERIKFIIQTNLYTYLAMVLEAHERFEKEMSNDQSSGNVGDETSAKPGNSINPRLKHFSDWVLKEKEDGNLKIFPPSSRENAQTVADLWRVPAIQATYKRLRDTLPRNAVYFLERILEISRSEYDPSDMDILQAEGLSSMEGLSCVDFSFPSTSQEESLESDYQHDTDMKYQLIRLNPRSLGENWKLLEMFEDADLVIFCVSLTDYAENIEDGEGNIVNKMLATKQLFENMVTHPSLANKRFLLVLTKFDLLEEKIEEVPLRTCEWFEDFNPLISQNQTSRHNPPMAQRAFHYIGYKFKRLYDSILEPVNMRGRSFKPKLFVCQVSLESDTVDNALRYAREILKWHVEETSMFQEMSTTSIEASSSS
partner: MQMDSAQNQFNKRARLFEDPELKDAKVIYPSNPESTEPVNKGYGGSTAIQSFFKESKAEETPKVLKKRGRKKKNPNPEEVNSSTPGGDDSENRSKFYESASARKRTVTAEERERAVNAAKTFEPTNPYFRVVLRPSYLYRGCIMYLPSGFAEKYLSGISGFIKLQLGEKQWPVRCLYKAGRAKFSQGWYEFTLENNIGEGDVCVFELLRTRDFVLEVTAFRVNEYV

Variants of: B1
Details: with rem19_arath REM19, Q9XIB5
T476N was tested, and the “effect of a mutation on the interaction” value was “disrupting interaction”.
